Results taken from article PMC7595112, “Ketohexokinase-A acts as a nuclear protein kinase that mediates fructose-induced metastasis in breast cancer” (Nature Communications, 2020).
Each block holds one molecule with its values, some of them ahead of it.

What was measured:
[1] = target: SLUG (SNAIL2) (UniProt O43623); test: co-immunoprecipitation, immunoblot; conditions: reference: wild-type YWHAH; sites S25
[2] = target: T1, FLAG-LRRC59 purified from HEK293T cells (human, UniProt Q96AG4 1-307); test: pull-down; purified His-KHK-A and FLAG-LRRC59 incubated 1 h at 4 °C with 1 mM fructose in 25 mM HEPES pH 7.5, 150 mM KCl, 12.5 mM MgCl2, 0.5 mM DTT, 0.1% NP-40, 10% glycerol; His-KHK-A pulled down with nickel-NTA, anti-Flag blot; conditions: both partners purified
T1 construct: leucine-rich repeat-containing protein 59, human cDNA NM_018509 cloned by RT-PCR into pcDNA-FLAG
T1 sequence (looked up): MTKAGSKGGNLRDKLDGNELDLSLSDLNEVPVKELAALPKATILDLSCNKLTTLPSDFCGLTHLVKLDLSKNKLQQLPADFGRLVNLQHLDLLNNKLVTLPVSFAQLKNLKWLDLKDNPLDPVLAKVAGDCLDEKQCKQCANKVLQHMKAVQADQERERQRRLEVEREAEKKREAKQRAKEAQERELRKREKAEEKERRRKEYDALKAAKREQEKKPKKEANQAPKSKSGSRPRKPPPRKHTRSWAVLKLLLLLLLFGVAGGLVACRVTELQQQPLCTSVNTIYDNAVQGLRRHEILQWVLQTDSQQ

binding against the reference [1]: lost
Molecule: YWHAH (14-3-3η) (from UniProt Q04917) YWHAH S25A

binding result [2]: binds
B1: His(6)-KHK-A purified from HEK293T cells (enzyme, human)
chain: MEEKQILCVGLVVLDVISLVDKYPKEDSEIRCLSQRWQRGGNASNSCTVLSLLGAPCAFMGSMAPGHVADFVLDDLRRYSVDLRYTVFQTTGSVPIATVIINEASGSRTILYYDRSLPDVSATDFEKVDLTQFKWIHIEGRNASEQVKMLQRIDAHNTRQPPEQKIRVSVEVEKPREELFQLFGYGDVVFVSKDVAKHLGFQSAEEALRGLYGRVRKGAVLVCAWAEEGADALGPDGKLLHSDAFPPPRVVDTLGAGDTFNASVIFSLSQGRSVQEALRFGCQVAGKKCGLQGFDGIV
notes: ketohexokinase isoform A (KHK-A), human cDNA NM_000221 cloned by RT-PCR into pcDNA-His(6); also called His-KHK-A; purified KHK-A; source: HEK293T, purified (nickel-NTA beads, eluted with 250 mM imidazole)
